Measurements published in patent publication US20110282033A1 (Ablynx, published 2011).
Where a chain is given by its changes, count along the chain named. Blank lines part the entries; values can stand above or below the binder they belong to.

How the values were obtained:
[1] = target: T1, Recombinant human FGFR4/Fc chimera (R&D Systems Cat #685 FR) (human, UniProt P22455 22-369); experiment: ELISA: periplasmic extract on coated FGFR4-Fc (500 ng/ml)
T1 construct: extracellular domain; Bought reagent; also called Fc-FGFR4; not shown: Fc part of the bought chimera (detected with anti-human IgG)
T1 sequence (looked up): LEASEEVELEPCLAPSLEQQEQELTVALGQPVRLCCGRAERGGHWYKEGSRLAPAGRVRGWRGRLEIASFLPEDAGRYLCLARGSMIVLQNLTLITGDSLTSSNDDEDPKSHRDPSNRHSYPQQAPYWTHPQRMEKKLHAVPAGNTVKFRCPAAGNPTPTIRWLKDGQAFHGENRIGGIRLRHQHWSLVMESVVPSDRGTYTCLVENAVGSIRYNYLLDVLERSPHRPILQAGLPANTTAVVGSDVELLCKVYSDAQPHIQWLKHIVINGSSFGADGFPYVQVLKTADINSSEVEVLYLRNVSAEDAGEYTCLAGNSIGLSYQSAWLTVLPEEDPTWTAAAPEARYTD
Procedure: In order to determine binding specificity to FGFR4, the clones were tested in an ELISA binding assay setup, using the monoclonal […]. Shortly, 500 ng/ml of Fc-FGFR4 (R&D Systems Cat #685 FR) was coated on Maxisorp ELISA plates (Nunc) and free binding sites were blocked using 4% Marvel skimmed milk in PBS. After a wash step with PBS, 10 ul of periplasmic extract from the monoclonal inductions of the different clones in 100 ul 2% Marvel PBS were allowed to bind to the FGFR4-Fc. […] 53-G3 was used as a reference since it was selected against PDGFRβ-Fc.

[2] = target: T2, Recombinant human PDGFRβ/Fc chimera (R&D Systems Cat #385 PR) (human, UniProt P09619 33-532); experiment: phage ELISA on PDGFRβ-Fc (0.1 ug/ml) captured by coated anti-human IgG, detection with HRP anti-M13
T2 construct: extracellular domain; Bought reagent; also called PDGFRP-Fc; not shown: Fc part of the bought chimera (captured and detected with anti-human IgG)
Procedure: In order to determine binding specificity to PDGFRβ-Fc, the clones were tested in an ELISA binding assay setup, using the monoclonal phage pools. Shortly, 1 ug/ml of Fc-capturing Ab (Rabbit anti-human IgG, DAKO # A423) was coated on Maxisorp ELISA plates (Nunc) and free binding sites were blocked using 4% Marvel skimmed milk in PBS. Next, 0.1 ug/ml receptor in 2% Marvel/PBS was captured. After a wash step with PBS, 10 ul of supernatant from the monoclonal phage inductions of the different clones in 100 ul 2% Marvel PBS were allowed to bind to the captured PDGFRP-Fc. […] Binding specificity was determined based on OD values compared to controls having received no phage.

PDGFRb on HeLa cells = target: T3, PDGFRb on HeLa cells (human, UniProt P09619 33-1106); experiment: immunofluorescence on HeLa cells, 40 nM Nanobody, detection with mouse anti-myc and goat anti-mouse Alexa 488; PDGFR co-stained with a commercial antibody
T3 construct: whole, on cells; HeLa cells were not transfected
Procedure: 40 nM of nanobody was added in medium and incubated 30 minutes at room temperature. Cells were put on ice to stop internalization and washed 3 times with ice-cold PBS. Cells were fixed by incubation for 30 minutes with 4% PFA at room temperature. After washing with PBS amine groups were blocked by incubation for 10 min. with 100 mM glycin in PBS at room temperature. After washing cells were permeabilized by incubation for 5 min. with 0.2% TritonX-100 in PBS at room temperature.
Cells were blocked by incubation in 2% Marvell/PBS for 15 minutes. Subsequently nanobodies were detected by incubation for 1 hour with mouse anti-myc (9E10) antibody in 2% Marvell/PBS and after washing 1 hour with goat-anti-mouse-alexa-488 in 2% Marvell/PBS in the dark. After washing coverslips were mounted with 4 ul mowiol and let to dry for at least 30 minutes. Dry slides were stored at −20 C.

[3] = target: T2, Recombinant human PDGFRβ/Fc chimera …; experiment: ELISA ligand competition with PDGFRβ-Fc and coated PDGF-BB (FIG. 5)
Procedure: Clones tested in the PDGFRβ binding assay were also screened for their ability to block PDGF-BB binding to PDGFRβ-Fc. For this, Nanobody containing periplasmic extracts, or selected purified Nanobodies, were used in an ELISA-based ligand competition setup. In short, 1.0 ug/ml (80 nM) recombinant human PDGF-BB (R&D Systems #220-BB) was coated in 96 well Maxisorp microtiter plates (Nunc) and blocked with 4% Marvel skimmed milk in PBS. In parallel, 1 ug/ml (12 nM) PDGFRβ-Fc chimera was incubated with periplasmic extracts or purified Nanobody. After 1 hour, the receptor-Nanobody pre-mixes were incubated 1 hour with the coated ligand. Bound PDGFRβ-Fc was detected using HRP-conjugated goat anti-human IgG (Jackson Immunoresearch, Cat #109-035-098). Blocking activity was determined as loss of OD signal, as compared to wells where no Nanobodies, or irrelevant Nb, had been added.

[4] = target: dimeric VEGFR1/Fc chimera (R&D Systems Cat #321-FL) (UniProt P17948); experiment: competition ELISA: VEGFR1-Fc (0.1 ug/ml) pre-mixed with Nanobody, binding to coated VEGF165 (0.2 ug/ml), detection with HRP anti-human IgG
[5] = target: T1, Recombinant human FGFR4/Fc chimera (R&D …); experiment: competition ELISA: FGFR4-Fc with heparin and MgCl2 pre-mixed with Nanobody, binding to coated acidic FGF (129 nM), detection with HRP anti-human IgG
Procedure: Clones tested in the FGFR4 binding assay were also screened for their ability to block acidic FGF binding to FGFR4-Fc. For this, purified Nanobodies, were used in an ELISA-based ligand competition setup. In short, 2.0 ug/ml (129 nM) human FGF (R&D Systems Cat #232-FA/CF) was coated in 96 well Maxisorp microtiter plates (Nunc) and blocked with 4% Marvel skimmed milk in PBS. In parallel, 0.25 ug/ml (1.9 nM) FGFR4-Fc chimera plus 2.5 μg/ml heparin and 10 mM MgCl₂ were incubated with periplasmic extracts or purified Nanobody. After 1 hour, the receptor-Nanobody pre-mixes were incubated 1 hour with the coated ligand. Bound FGFR4-Fc was detected using HRP-conjugated goat anti-human IgG (Jackson Immunoresearch, Cat #109-035-098). Blocking activity was determined as loss of OD signal, as compared to wells where irrelevant Nanobody had been added. […] Ligand is coated at 129 nM and receptor is added at […].

T2 sequence (P09619 33-532, change not shown): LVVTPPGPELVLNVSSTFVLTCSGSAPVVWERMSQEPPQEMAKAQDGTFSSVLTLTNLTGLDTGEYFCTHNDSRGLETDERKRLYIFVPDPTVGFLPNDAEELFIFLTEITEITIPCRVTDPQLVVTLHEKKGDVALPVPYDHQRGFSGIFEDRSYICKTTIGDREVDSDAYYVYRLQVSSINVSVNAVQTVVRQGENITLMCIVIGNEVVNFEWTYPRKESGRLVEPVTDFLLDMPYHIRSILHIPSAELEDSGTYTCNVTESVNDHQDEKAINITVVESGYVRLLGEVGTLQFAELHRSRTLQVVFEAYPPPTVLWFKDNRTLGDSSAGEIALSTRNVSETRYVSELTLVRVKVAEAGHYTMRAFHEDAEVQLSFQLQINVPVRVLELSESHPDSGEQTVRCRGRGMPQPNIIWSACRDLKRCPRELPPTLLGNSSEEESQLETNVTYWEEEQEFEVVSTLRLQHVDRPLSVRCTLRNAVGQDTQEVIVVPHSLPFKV
T3 sequence (P09619 33-1106): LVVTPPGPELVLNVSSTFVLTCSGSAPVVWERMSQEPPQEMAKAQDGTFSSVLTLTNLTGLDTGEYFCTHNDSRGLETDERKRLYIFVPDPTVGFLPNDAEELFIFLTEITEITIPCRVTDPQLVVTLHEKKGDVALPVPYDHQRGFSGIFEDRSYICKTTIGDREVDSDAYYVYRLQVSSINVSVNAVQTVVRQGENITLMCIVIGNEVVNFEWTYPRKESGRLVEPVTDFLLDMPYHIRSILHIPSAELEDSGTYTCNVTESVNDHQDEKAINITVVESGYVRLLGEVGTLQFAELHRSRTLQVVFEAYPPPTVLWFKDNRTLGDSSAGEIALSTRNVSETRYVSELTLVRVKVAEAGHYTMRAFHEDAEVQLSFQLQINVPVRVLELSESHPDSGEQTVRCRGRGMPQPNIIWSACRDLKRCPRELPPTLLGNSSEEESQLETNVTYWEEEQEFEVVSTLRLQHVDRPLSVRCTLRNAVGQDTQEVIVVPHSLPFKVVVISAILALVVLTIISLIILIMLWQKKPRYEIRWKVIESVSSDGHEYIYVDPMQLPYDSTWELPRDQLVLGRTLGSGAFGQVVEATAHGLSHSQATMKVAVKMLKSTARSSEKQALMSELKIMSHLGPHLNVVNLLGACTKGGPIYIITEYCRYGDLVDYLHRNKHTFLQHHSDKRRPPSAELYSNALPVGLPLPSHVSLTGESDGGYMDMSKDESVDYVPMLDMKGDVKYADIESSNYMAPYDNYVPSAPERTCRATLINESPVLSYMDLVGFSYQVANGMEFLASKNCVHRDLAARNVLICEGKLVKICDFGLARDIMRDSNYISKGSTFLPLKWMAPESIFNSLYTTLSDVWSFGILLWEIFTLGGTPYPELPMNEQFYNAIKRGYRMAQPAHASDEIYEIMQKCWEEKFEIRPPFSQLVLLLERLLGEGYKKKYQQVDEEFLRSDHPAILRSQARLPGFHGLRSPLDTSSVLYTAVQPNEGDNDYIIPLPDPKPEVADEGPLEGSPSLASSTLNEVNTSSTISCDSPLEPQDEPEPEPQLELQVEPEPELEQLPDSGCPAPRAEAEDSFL
dimeric VEGFR1/Fc chimera (R&D Systems Cat #321-FL), sequence (P17948 27-758 limits assumed, change not shown): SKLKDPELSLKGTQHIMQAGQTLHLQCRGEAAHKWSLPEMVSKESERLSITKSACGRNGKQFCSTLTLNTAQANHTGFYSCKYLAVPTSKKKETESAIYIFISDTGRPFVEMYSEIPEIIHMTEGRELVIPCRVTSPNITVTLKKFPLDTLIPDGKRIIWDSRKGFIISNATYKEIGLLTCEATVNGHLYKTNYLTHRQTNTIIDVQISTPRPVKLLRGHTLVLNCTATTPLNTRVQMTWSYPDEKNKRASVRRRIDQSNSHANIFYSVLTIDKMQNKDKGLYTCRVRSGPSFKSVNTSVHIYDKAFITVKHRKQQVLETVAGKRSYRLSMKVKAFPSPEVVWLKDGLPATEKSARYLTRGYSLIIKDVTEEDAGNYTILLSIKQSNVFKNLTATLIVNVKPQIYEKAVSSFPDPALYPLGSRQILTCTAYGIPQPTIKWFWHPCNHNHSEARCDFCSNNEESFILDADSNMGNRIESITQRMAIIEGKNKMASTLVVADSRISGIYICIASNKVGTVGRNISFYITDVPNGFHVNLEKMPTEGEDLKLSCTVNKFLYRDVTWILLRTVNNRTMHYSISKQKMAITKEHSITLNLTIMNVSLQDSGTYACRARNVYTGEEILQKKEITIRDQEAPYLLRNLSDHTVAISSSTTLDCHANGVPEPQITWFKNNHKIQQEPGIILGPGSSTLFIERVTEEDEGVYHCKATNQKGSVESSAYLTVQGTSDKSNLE

B1: 53-G3 (VHH)
VHH: EVQLVESGGGLVQAGGSLRLSCAASRRTFSSYAMGWFRQAPGKEREIVADISWNGSRTYYADSAKGRFTISRDNAKNTVYLQMNSLKPEDTAVYYCAAALFGGLGRAPSTHEYAYWGQGTQVTVSS
notes: Purified Nanobody; Also used as negative control in the FGFR4 assays
binding result [1]: no binding | binding result [2]: binds | binding result (PDGFRb on HeLa cells): binds

B3: 42-H5 (VHH)
VHH: EVQLVESGGGLVQPGGSLTLSCAASGFTFSSYAMSWVRQAPGKGLELVSDINSGGISTYYADSVKGRFTISRDNAKNTLYLQMNSLKPEDTAVYYCKTDTLVAGTDDYWGQGTRVTVSS
notes: Purified Nanobody; Also used as negative control in the PDGFRβ assays
binding result [3]: no binding (tested: 50 nM)

B4: 46-F11 (VHH)
VHH: EVQLVESGGGLVQPGGSLRLSCAASGFTFSSYAMSWVRQAPGKELEWVSGINSGGDRTVNADSVKGRFTVSRDNAKNTLYLQMNSLKPEDTALYYCAKSIPPTDDRNYWGQGTQVTVSS
IC50 (read off the curve) [4]: 1 nM

More lines, now with the values ahead:

binding result [2]: binds | binding result (PDGFRb on HeLa cells): binds
B2: 53-B5 (VHH)
VHH: B1 VHH with I47V
notes: Purified Nanobody

IC50 (read off the curve) [5]: ~10 nM
B5: 73-G9 (VHH)
VHH: EVQLVESGGGLVQPGGSLKLSCAAAGFTFRPYAMGWFRQAPGKEREFVAAVATNVGTTFYQDSVKGRFTISRDNAKNTVYLQMNSLRPEDTAVYYCNTKLYSGIFREYWGQGTQVTVSS
notes: Purified Nanobody
